Patent US20200087373A1 (UNIVERSITY OF COPENHAGEN, published 2020)
Ends that are not written are not given here. * marks the point of attachment. C16 diacid = O=C(O)CCCCCCCCCCCCCCC(=O)*; Stearoyl = CCCCCCCCCCCCCCCCCC(=O)*; Palmitoyl = CCCCCCCCCCCCCCCC(=O)*; Myristoyl = CCCCCCCCCCCCCC(=O)*; Lauroyl = CCCCCCCCCCCC(=O)*

T1: human GIP receptor (human, UniProt P48546 22-466)
T1 construct: whole, on cells; Transiently transfected COS-7 cells expressing the human GIP receptor; also called hGIPR
T1 sequence (looked up): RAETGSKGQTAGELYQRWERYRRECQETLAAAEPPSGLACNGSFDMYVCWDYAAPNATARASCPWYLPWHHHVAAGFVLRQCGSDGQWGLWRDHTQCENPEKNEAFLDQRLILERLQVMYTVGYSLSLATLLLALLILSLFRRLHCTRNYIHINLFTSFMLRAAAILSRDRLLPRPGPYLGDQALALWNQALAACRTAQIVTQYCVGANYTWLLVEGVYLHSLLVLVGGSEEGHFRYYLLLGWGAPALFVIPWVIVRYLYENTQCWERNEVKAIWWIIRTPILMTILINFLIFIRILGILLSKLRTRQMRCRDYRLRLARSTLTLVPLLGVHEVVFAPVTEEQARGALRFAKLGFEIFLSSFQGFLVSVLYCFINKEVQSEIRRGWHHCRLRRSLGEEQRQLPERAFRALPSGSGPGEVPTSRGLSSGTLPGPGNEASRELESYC

B1: AT117 [hGIP(3-30)NH2[H18K]-C16/18] (peptide)
peptide: EGTFISDYSIAMDKIK(Palmitoyl)QQDFVNWLLAQK-NH2
modifications: N-terminus assumed
SMILES: CCCCCCCCCCCCCCCC(=O)NCCCC[C@H](NC(=O)[C@@H](NC(=O)[C@H](CCCCN)NC(=O)[C@H](CC(=O)O)NC(=O)[C@H](CCSC)NC(=O)[C@H](C)NC(=O)[C@@H](NC(=O)[C@H](CO)NC(=O)[C@H](Cc1ccc(O)cc1)NC(=O)[C@H](CC(=O)O)NC(=O)[C@H](CO)NC(=O)[C@@H](NC(=O)[C@H](Cc1ccccc1)NC(=O)[C@@H](NC(=O)CNC(=O)[C@@H](N)CCC(=O)O)[C@@H](C)O)[C@@H](C)CC)[C@@H](C)CC)[C@@H](C)CC)C(=O)N[C@@H](CCC(N)=O)C(=O)N[C@@H](CCC(N)=O)C(=O)N[C@@H](CC(=O)O)C(=O)N[C@@H](Cc1ccccc1)C(=O)N[C@H](C(=O)N[C@@H](CC(N)=O)C(=O)N[C@@H](Cc1c[nH]c2ccccc12)C(=O)N[C@@H](CC(C)C)C(=O)N[C@@H](CC(C)C)C(=O)N[C@@H](C)C(=O)N[C@@H](CCC(N)=O)C(=O)N[C@@H](CCCCN)C(N)=O)C(C)C
B2: AT116 [hGIP(3-30)NH2-C12/18] (H18K) (peptide)
peptide: EGTFISDYSIAMDKIK(Lauroyl)QQDFVNWLLAQK-NH2
modifications: N-terminus assumed
SMILES: CCCCCCCCCCCC(=O)NCCCC[C@H](NC(=O)[C@@H](NC(=O)[C@H](CCCCN)NC(=O)[C@H](CC(=O)O)NC(=O)[C@H](CCSC)NC(=O)[C@H](C)NC(=O)[C@@H](NC(=O)[C@H](CO)NC(=O)[C@H](Cc1ccc(O)cc1)NC(=O)[C@H](CC(=O)O)NC(=O)[C@H](CO)NC(=O)[C@@H](NC(=O)[C@H](Cc1ccccc1)NC(=O)[C@@H](NC(=O)CNC(=O)[C@@H](N)CCC(=O)O)[C@@H](C)O)[C@@H](C)CC)[C@@H](C)CC)[C@@H](C)CC)C(=O)N[C@@H](CCC(N)=O)C(=O)N[C@@H](CCC(N)=O)C(=O)N[C@@H](CC(=O)O)C(=O)N[C@@H](Cc1ccccc1)C(=O)N[C@H](C(=O)N[C@@H](CC(N)=O)C(=O)N[C@@H](Cc1c[nH]c2ccccc12)C(=O)N[C@@H](CC(C)C)C(=O)N[C@@H](CC(C)C)C(=O)N[C@@H](C)C(=O)N[C@@H](CCC(N)=O)C(=O)N[C@@H](CCCCN)C(N)=O)C(C)C
B3: AT143 [hGIP(3-30)NH2[M14L; H18K]-C16/18] (peptide)
peptide: EGTFISDYSIALDKIK(Palmitoyl)QQDFVNWLLAQK-NH2
modifications: N-terminus assumed
SMILES: CCCCCCCCCCCCCCCC(=O)NCCCC[C@H](NC(=O)[C@@H](NC(=O)[C@H](CCCCN)NC(=O)[C@H](CC(=O)O)NC(=O)[C@H](CC(C)C)NC(=O)[C@H](C)NC(=O)[C@@H](NC(=O)[C@H](CO)NC(=O)[C@H](Cc1ccc(O)cc1)NC(=O)[C@H](CC(=O)O)NC(=O)[C@H](CO)NC(=O)[C@@H](NC(=O)[C@H](Cc1ccccc1)NC(=O)[C@@H](NC(=O)CNC(=O)[C@@H](N)CCC(=O)O)[C@@H](C)O)[C@@H](C)CC)[C@@H](C)CC)[C@@H](C)CC)C(=O)N[C@@H](CCC(N)=O)C(=O)N[C@@H](CCC(N)=O)C(=O)N[C@@H](CC(=O)O)C(=O)N[C@@H](Cc1ccccc1)C(=O)N[C@H](C(=O)N[C@@H](CC(N)=O)C(=O)N[C@@H](Cc1c[nH]c2ccccc12)C(=O)N[C@@H](CC(C)C)C(=O)N[C@@H](CC(C)C)C(=O)N[C@@H](C)C(=O)N[C@@H](CCC(N)=O)C(=O)N[C@@H](CCCCN)C(N)=O)C(C)C
B4: AT160 [hGIP(3-30)NH2[H18K]-C18/18] (peptide)
peptide: EGTFISDYSIAMDKIK(Stearoyl)QQDFVNWLLAQK-NH2
modifications: N-terminus assumed
SMILES: CCCCCCCCCCCCCCCCCC(=O)NCCCC[C@H](NC(=O)[C@@H](NC(=O)[C@H](CCCCN)NC(=O)[C@H](CC(=O)O)NC(=O)[C@H](CCSC)NC(=O)[C@H](C)NC(=O)[C@@H](NC(=O)[C@H](CO)NC(=O)[C@H](Cc1ccc(O)cc1)NC(=O)[C@H](CC(=O)O)NC(=O)[C@H](CO)NC(=O)[C@@H](NC(=O)[C@H](Cc1ccccc1)NC(=O)[C@@H](NC(=O)CNC(=O)[C@@H](N)CCC(=O)O)[C@@H](C)O)[C@@H](C)CC)[C@@H](C)CC)[C@@H](C)CC)C(=O)N[C@@H](CCC(N)=O)C(=O)N[C@@H](CCC(N)=O)C(=O)N[C@@H](CC(=O)O)C(=O)N[C@@H](Cc1ccccc1)C(=O)N[C@H](C(=O)N[C@@H](CC(N)=O)C(=O)N[C@@H](Cc1c[nH]c2ccccc12)C(=O)N[C@@H](CC(C)C)C(=O)N[C@@H](CC(C)C)C(=O)N[C@@H](C)C(=O)N[C@@H](CCC(N)=O)C(=O)N[C@@H](CCCCN)C(N)=O)C(C)C
B5: AT158 [hGIP(3-30)NH2[H18K]-C16diacid/18] (peptide)
peptide: EGTFISDYSIAMDKIK(C16 diacid)QQDFVNWLLAQK-NH2
modifications: N-terminus assumed
SMILES: CC[C@H](C)[C@H](NC(=O)[C@H](CO)NC(=O)[C@H](Cc1ccc(O)cc1)NC(=O)[C@H](CC(=O)O)NC(=O)[C@H](CO)NC(=O)[C@@H](NC(=O)[C@H](Cc1ccccc1)NC(=O)[C@@H](NC(=O)CNC(=O)[C@@H](N)CCC(=O)O)[C@@H](C)O)[C@@H](C)CC)C(=O)N[C@@H](C)C(=O)N[C@@H](CCSC)C(=O)N[C@@H](CC(=O)O)C(=O)N[C@@H](CCCCN)C(=O)N[C@H](C(=O)N[C@@H](CCCCNC(=O)CCCCCCCCCCCCCCC(=O)O)C(=O)N[C@@H](CCC(N)=O)C(=O)N[C@@H](CCC(N)=O)C(=O)N[C@@H](CC(=O)O)C(=O)N[C@@H](Cc1ccccc1)C(=O)N[C@H](C(=O)N[C@@H](CC(N)=O)C(=O)N[C@@H](Cc1c[nH]c2ccccc12)C(=O)N[C@@H](CC(C)C)C(=O)N[C@@H](CC(C)C)C(=O)N[C@@H](C)C(=O)N[C@@H](CCC(N)=O)C(=O)N[C@@H](CCCCN)C(N)=O)C(C)C)[C@@H](C)CC
B6: AT159 [hGIP(3-30)NH2[K16R; H18K; K30R]-C16diacid/18] (peptide)
peptide: EGTFISDYSIAMDRIK(C16 diacid)QQDFVNWLLAQR-NH2
modifications: N-terminus assumed
SMILES: CC[C@H](C)[C@H](NC(=O)[C@H](CO)NC(=O)[C@H](Cc1ccc(O)cc1)NC(=O)[C@H](CC(=O)O)NC(=O)[C@H](CO)NC(=O)[C@@H](NC(=O)[C@H](Cc1ccccc1)NC(=O)[C@@H](NC(=O)CNC(=O)[C@@H](N)CCC(=O)O)[C@@H](C)O)[C@@H](C)CC)C(=O)N[C@@H](C)C(=O)N[C@@H](CCSC)C(=O)N[C@@H](CC(=O)O)C(=O)N[C@@H](CCCNC(=N)N)C(=O)N[C@H](C(=O)N[C@@H](CCCCNC(=O)CCCCCCCCCCCCCCC(=O)O)C(=O)N[C@@H](CCC(N)=O)C(=O)N[C@@H](CCC(N)=O)C(=O)N[C@@H](CC(=O)O)C(=O)N[C@@H](Cc1ccccc1)C(=O)N[C@H](C(=O)N[C@@H](CC(N)=O)C(=O)N[C@@H](Cc1c[nH]c2ccccc12)C(=O)N[C@@H](CC(C)C)C(=O)N[C@@H](CC(C)C)C(=O)N[C@@H](C)C(=O)N[C@@H](CCC(N)=O)C(=O)N[C@@H](CCCNC(=N)N)C(N)=O)C(C)C)[C@@H](C)CC

Columns and labels:
human serum albumin = biological target: T2, human serum albumin (human, UniProt P02768 25-609); test: 125I-human GIP competition binding on hGIPR COS-7 cells with and without 2% HSA; fold change of IC50 taken as HSA binding
T2 construct: also called HSA; human albumin
T2 sequence (P02768 25-609 limits assumed): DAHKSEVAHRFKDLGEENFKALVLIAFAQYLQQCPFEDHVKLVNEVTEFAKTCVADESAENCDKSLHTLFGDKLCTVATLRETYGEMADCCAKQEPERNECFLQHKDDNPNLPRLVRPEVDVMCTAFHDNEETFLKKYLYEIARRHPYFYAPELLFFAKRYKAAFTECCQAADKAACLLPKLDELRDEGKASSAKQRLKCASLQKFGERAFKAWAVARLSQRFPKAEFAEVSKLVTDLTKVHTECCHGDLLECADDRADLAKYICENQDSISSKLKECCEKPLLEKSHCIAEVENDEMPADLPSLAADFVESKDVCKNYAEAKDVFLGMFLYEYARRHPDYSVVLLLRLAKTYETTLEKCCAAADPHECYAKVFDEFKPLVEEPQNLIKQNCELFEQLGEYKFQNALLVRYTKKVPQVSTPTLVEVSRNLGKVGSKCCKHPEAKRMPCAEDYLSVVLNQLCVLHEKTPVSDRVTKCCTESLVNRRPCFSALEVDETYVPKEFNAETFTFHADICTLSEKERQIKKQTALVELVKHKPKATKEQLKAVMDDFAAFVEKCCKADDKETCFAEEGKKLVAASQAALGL
Protocol: (§1) After incubation, the cells were washed twice in ice-cold binding buffer (+/−2% HSA) and lysed using 200 mM NaOH with 1% SDS for 30 min. Nonspecific binding was determined as the binding of radioactive ligand to untransfected cells.

human GIP receptor [1] = biological target: T1, human GIP receptor; test: 125I-hGIP(1-42) competition binding, COS-7 cells expressing human GIPR
Protocol: as §1

human GIP receptor [2] = biological target: T1, human GIP receptor; test: 125I-hGIP competition binding on hGIPR COS-7 cells; fold in affinity, paired, reference taken as GIP(3-30)NH2
Protocol: as §1

human GIP receptor [3] = biological target: T1, human GIP receptor; test: cell-based or functional assay
human GIP receptor [4] = biological target: T1, human GIP receptor; test: ratio of IC50 with 2% HSA to IC50 with 0.1% casein, 125I-hGIP competition binding on hGIPR COS-7 cells
Protocol: as §1

human GIP receptor [5] = biological target: T1, human GIP receptor; test: 125I-hGIP(1-42) competition binding, COS-7 cells expressing human GIPR, 0.1% casein (no HSA)
Protocol: as §1

human GIP receptor [6] = biological target: T1, human GIP receptor; test: 125I-hGIP(1-42) competition binding, COS-7 cells expressing human GIPR, 2% HSA
Protocol: as §1

Binder | binding result (human serum albumin) | IC50 (human GIP receptor [1]) | fold (paired) (human GIP receptor [2]) | cAMP - antagonisme IC50 (human GIP receptor [3]) | cAMP - antagonisme fold (paired) (human GIP receptor [3]) | Fold change (IC50 2% HSA / IC50 0.1% casein) (human GIP receptor [4]) | IC50 (human GIP receptor [5]) | IC50 (human GIP receptor [6])
B1 | binds | – | – | – | – | – | – | –
B2 | – | 71.2 nM | 5 fold | 11.9 nM | 1.2 fold | 5.2 fold | 61.5 nM | 321 nM
B3 | – | 86.1 nM | 11 fold | 13.3 nM | 0.3 fold | 1.2 fold | 86.1 nM | 105 nM
B4 | – | 48.8 nM | 6 fold | 36.1 nM | 0.7 fold | 3.6 fold | 48.8 nM | 175 nM
B5 | – | 7.9 nM | 1 fold | 4.5 nM | 0.1 fold | 2 fold | 7.9 nM | 16 nM
B6 | – | 25 nM | 3 fold | 5.6 nM | 0.1 fold | 0.8 fold | 25 nM | 20 nM
EGTFISDYSIAMDK(Myristoyl)IHQQDFVNWLLAQK-NH2 [AT111 [hGIP(3-30)NH2-C14/16]] | – | 261 nM | 31 fold | 21.9 nM | 3.3 fold | 5.1 fold | 407 nM | 2090 nM
